Experimental data: the Immune Epitope Database (IEDB)

Experiments:
HLA-B*15:02 = assay: IEDB peptide-MHC binding, purified MHC/direct/fluorescence; filed as Kd, often an IC50 or EC50 that approximates it; ≥ and ≤ were set here for values at or beyond the usual limits of such assays; conditions: source organism: dengue virus type 4
HLA-B*46:01 = assay: as above
HLA-A*11:01 = assay: as above; conditions: source organism: Giardia lamblia ATCC 50803
HLA-B*27:05 = assay: as above; conditions: source organism: Giardia lamblia ATCC 50803
HLA-B*57:01 = assay: as above; conditions: source organism: Giardia lamblia ATCC 50803
HLA-B*18:01 = assay: as above; conditions: source organism: Giardia lamblia ATCC 50803
HLA-A*01:01 = assay: as above; conditions: source organism: Giardia lamblia ATCC 50803
HLA-A*03:01 = assay: as above; conditions: source organism: Giardia lamblia ATCC 50803
HLA-A*02:11 = assay: as above; conditions: source organism: Giardia lamblia ATCC 50803
HLA-B*38:01 = assay: as above; conditions: source organism: Giardia lamblia ATCC 50803
HLA-A*69:01 = assay: as above; conditions: source organism: Giardia lamblia ATCC 50803
HLA-B*58:01 = assay: as above; conditions: source organism: Giardia lamblia ATCC 50803
HLA-B*48:01 = assay: as above; conditions: source organism: Giardia lamblia ATCC 50803
HLA-A*02:12 = assay: as above; conditions: source organism: Giardia lamblia ATCC 50803
HLA-B*40:01 = assay: as above; conditions: source organism: Giardia lamblia ATCC 50803
HLA-B*08:01 = assay: as above; conditions: source organism: Giardia lamblia ATCC 50803
HLA-A*02:01 = assay: as above; conditions: source organism: Giardia lamblia ATCC 50803
HLA-A*31:01 = assay: as above; conditions: source organism: Giardia lamblia ATCC 50803
HLA-A*26:01 = assay: as above; conditions: source organism: Giardia lamblia ATCC 50803
HLA-B*15:01 = assay: as above; conditions: source organism: Giardia lamblia ATCC 50803
HLA-B*07:02 = assay: as above; conditions: source organism: Giardia lamblia ATCC 50803
HLA-A*02:03 = assay: as above; conditions: source organism: Giardia lamblia ATCC 50803
HLA-B*08:02 = assay: as above; conditions: source organism: Giardia lamblia ATCC 50803
HLA-B*15:09 = assay: IEDB peptide-MHC binding, purified MHC/competitive/fluorescence; filed as Kd, often an IC50 or EC50 that approximates it; ≥ and ≤ were set here for values at or beyond the usual limits of such assays; conditions: source organism: Giardia lamblia ATCC 50803
HLA-B*15:17 = assay: as above; conditions: source organism: Giardia lamblia ATCC 50803
HLA-B*39:01 = assay: as above; conditions: source organism: Giardia lamblia ATCC 50803
HLA-A*30:01 = assay: as above; conditions: source organism: Giardia lamblia ATCC 50803

With AQEDDQYVF the Kd (HLA-B*15:02) was ≥ 20 µM and the Kd (HLA-B*46:01; source organism: dengue virus type 4) was ≥ 20 µM.
In the case of LPVFATIGL, the Kd (HLA-A*11:01) is reported as ≥ 20 µM, the Kd (HLA-B*27:05) is reported as ≥ 20 µM and the Kd (HLA-B*57:01) is reported as ≥ 20 µM. For the same sequence, the Kd (HLA-B*18:01) was 3.1 µM, the Kd (HLA-A*01:01) was ≥ 20 µM and the Kd (HLA-A*03:01) was ≥ 20 µM. For the same sequence, the Kd (HLA-A*02:11) was 0.146 µM, the Kd (HLA-B*38:01) was ≥ 20 µM and the Kd (HLA-A*69:01) was 0.0117 µM. For the same sequence, the Kd (HLA-B*58:01) was ≥ 20 µM, the Kd (HLA-B*48:01) was ≥ 20 µM and the Kd (HLA-A*02:12) was 0.393 µM. For the same sequence, the Kd (HLA-B*40:01) was ≥ 20 µM, the Kd (HLA-B*08:01) was ≥ 20 µM and the Kd (HLA-A*02:01) was 7.53 µM. For the same sequence, the Kd (HLA-A*31:01) was ≥ 20 µM, the Kd (HLA-A*26:01) was ≥ 20 µM and the Kd (HLA-B*15:01) was ≥ 20 µM. The Kd (HLA-B*07:02) was 0.0583 µM, the Kd (HLA-A*02:03) was ≥ 20 µM and the Kd (HLA-B*46:01; source organism: Giardia lamblia ATCC 50803) was ≥ 20 µM. The Kd (HLA-B*08:02) was ≥ 20 µM, the Kd (HLA-B*15:09) was 1.98 µM and the Kd (HLA-B*15:17) was ≥ 20 µM. For the same sequence, the Kd (HLA-B*39:01) was 0.0902 µM and the Kd (HLA-A*30:01) was ≥ 20 µM.
